This is an account of results in paper PMC3087838 (Nature structural & molecular biology, 2011).

To fix the notation:
B2: Full length WT His-hVDR (human vitamin D receptor) (receptor, UniProt P11473 1-427, looked up)
chain: MEAMAASTSLPDPGDFDRNVPRICGVCGDRATGFHFNAMTCEGCKGFFRRSMKRKALFTCPFNGDCRITKDNRRHCQACRLKRCVDIGMMKEFILTDEEVQRKREMILKRKEEEALKDSLRPKLSEEQQRIIAILLDAHHKTYDPTYSDFCQFRPPVRVNDGGGSHPSRPNSRHTPSFSGDSSSSCSDHCITSSDMMDSSSFSNLDLSEEDSDDPSVTLELSQLSMLPHLADLVSYSIQKVIGFAKMIPGFRDLTSEDQIVLLKSSAIEVIMLRSNESFTMDDMSWTCGNQDYKYRVSDVTKAGHSLELIEPLIKFQVGLKKLNLHEEEHVLLMAICIVSPDRPGVQDAALIEAIQDRLSNTLQTYIRCRHPPPGSHLLYAKMIQKLADLRSLNEEHSKQYRCLSFQPECSMKLTPLVLEVFGNEIS

What all share (assay): HDX-MS
Experiment [1] has as its target T1, Full length WT Flag-hRXRα (human retinoid X receptor alpha) (human, UniProt P19793 1-462).
T1 sequence (looked up): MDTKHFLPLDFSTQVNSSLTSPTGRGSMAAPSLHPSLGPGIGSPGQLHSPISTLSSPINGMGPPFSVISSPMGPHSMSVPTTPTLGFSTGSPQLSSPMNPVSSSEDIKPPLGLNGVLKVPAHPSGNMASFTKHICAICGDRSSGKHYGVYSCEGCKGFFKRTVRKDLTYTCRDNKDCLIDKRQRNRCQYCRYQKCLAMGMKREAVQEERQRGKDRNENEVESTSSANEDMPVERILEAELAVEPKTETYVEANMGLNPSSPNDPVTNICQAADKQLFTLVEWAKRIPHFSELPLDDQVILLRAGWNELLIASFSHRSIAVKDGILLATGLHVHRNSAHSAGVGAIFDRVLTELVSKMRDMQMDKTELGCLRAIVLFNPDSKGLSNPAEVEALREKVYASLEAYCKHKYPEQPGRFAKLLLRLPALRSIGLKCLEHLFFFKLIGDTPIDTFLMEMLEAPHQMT

Experiment [2] addresses T2, RXRα-VDR heterodimer complex (full length His-hVDR with full length Flag-hRXRα) (human, UniProt P11473 1-427; P19793 1-462).
T2 sequence (looked up) 1: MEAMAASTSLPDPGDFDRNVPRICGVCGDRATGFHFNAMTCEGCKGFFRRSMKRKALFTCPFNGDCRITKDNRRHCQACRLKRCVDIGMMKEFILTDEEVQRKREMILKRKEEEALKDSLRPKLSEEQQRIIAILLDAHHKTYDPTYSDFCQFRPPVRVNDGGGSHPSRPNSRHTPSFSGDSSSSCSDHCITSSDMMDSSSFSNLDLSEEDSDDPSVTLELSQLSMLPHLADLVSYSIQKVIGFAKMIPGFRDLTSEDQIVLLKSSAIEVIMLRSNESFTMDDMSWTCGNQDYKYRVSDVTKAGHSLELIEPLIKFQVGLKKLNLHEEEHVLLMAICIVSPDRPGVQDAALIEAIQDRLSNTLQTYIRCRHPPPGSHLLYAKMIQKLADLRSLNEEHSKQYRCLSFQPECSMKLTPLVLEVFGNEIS
T2 sequence (looked up) 2: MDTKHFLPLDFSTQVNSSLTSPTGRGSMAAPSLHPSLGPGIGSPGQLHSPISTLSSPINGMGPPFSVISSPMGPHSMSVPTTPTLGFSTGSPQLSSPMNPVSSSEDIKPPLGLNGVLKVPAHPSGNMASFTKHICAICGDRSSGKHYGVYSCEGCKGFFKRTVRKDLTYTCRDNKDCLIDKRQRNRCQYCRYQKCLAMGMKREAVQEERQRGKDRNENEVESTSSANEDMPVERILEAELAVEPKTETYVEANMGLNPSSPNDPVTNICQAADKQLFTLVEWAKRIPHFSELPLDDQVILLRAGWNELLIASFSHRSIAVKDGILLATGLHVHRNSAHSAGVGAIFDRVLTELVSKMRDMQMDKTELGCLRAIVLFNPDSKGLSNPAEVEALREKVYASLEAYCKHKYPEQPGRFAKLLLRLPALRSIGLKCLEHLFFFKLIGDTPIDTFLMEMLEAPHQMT

Experiment [3] concerns the target B2.
Experiment [4] addresses T1, Full length WT Flag-hRXRα (human …). This is another data set of the same source.

Like-named read-outs stand apart in the source and are kept apart here.

B1: His-hSRC1-RID (627-786) variant 1, receptor interacting domain of human steroid receptor coactivator 1 (domain or fragment, UniProt Q15788-1 627-786, looked up)
chain: SQTSHKLVQLLTTTAEQQLRHADIDTSCKDVLSCTGTSNSASANSSGGSCPSSHSSLTERHKILHRLLQEGSPSDITTLSVEPDKKDSASTSVSVTGQVQGNSSIKLELDASKKKESKDHQLLRYLLDKDEKDLRSTPNLSLDDVKVKVEKKEQMDPCNT
As to B1, the binding result in experiment [1], in experiment [2] and in experiment [3] was “binds” each time.

On to B2, for which, in experiment [4], the binding result is on record as “binds”.

B3: His-hVDR LBD (residues 118-425, Δ[165-215]) (domain or fragment, human, UniProt P11473 118-425, looked up)
chain: DSLRPKLSEEQQRIIAILLDAHHKTYDPTYSDFCQFRPPVRVNDGGGSVTLELSQLSMLPHLADLVSYSIQKVIGFAKMIPGFRDLTSEDQIVLLKSSAIEVIMLRSNESFTMDDMSWTCGNQDYKYRVSDVTKAGHSLELIEPLIKFQVGLKKLNLHEEEHVLLMAICIVSPDRPGVQDAALIEAIQDRLSNTLQTYIRCRHPPPGSHLLYAKMIQKLADLRSLNEEHSKQYRCLSFQPECSMKLTPLVLEVFGNE
B3: in experiment [4], the binding result is “binds”.
